According to PMC10277282:

Target: MHC II (mouse (endogenous in BMDM)) (UniProt P14434)
Sequence of UniProt P14434 (P14434 24-256, chain 1 of 2): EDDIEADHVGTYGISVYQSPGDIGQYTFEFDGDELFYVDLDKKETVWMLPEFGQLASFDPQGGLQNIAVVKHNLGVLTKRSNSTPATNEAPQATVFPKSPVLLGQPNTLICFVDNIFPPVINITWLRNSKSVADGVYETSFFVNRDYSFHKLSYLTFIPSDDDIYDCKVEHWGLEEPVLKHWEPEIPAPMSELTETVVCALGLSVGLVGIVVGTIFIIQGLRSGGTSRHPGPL
Sequence of UniProt P14434 (P14483 28-265, chain 2 of 2, further chain): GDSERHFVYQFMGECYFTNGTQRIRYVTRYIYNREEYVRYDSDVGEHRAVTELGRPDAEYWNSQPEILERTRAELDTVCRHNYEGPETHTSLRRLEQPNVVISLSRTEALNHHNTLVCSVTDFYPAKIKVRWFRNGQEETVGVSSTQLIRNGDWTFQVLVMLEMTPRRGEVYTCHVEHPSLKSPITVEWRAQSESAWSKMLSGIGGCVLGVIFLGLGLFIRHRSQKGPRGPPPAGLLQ

TLR4 hyperinflammation in vivo (LPS sepsis in mice); concentration of sCD4 needed for 50% inhibition: 125 nM | TNF/IL-6 response of macrophages to LPS in vitro; concentration of sCD4 needed for 50% inhibition of TLR4 hyperinflammation: 25 nM
Substance: soluble CD4 (ectodomain of CD4, D1-D4 domains) (from UniProt P06332 27-394) (domain or fragment)
